B1: 32 (protein)
chain: LDNGLARTPTMGWLHWERFMCNLDCQEEPDSCISEKLFMEMAELMVSEGWKDAGYEYLCIDDCWMAPQRDSEGRLQADPQRFPHGIRQLANYVHSKGLKLGIYADVGNKTCAGFPGSFGYYDIDAQTFADWGVDLLKFDGCYCDSLENLADGYKHMSLALNRTGRSIVYSCEWPLYMWPFQKPNYTEIRQYCNHWRNFADIDDSWKSIKSILDWTSFNQERIVDVAGPGGWNDPDMLVIGNFGLSWNQQVTQMALWAIMAAPLFMSNDLRHISPQAKALLQDKDVIAINQDPLGKQGYQLRQGDNFEVWERPLSGLAWAVAMINRQEIGGPRSYTIAVASLGKGVACNPACFITQLLPVKRKLGFYEWTSRLKSHVNPTGTVLLQLENTMQMSLKDLLL
modifications: Synthetic Polypeptide sequence of Variant No. 32 of mature Human GLA
B2: 1 (protein)
chain: LDNGLARTPTMGWLHWERFMCNLDCQEEPDSCISEKLFMEMAELMVSEGWKDAGYEYLCIDDCWMAPQRDSEGRLQADPQRFPHGIRQLANYVHSKGLKLGIYADVGNKTCAGFPGSFGYYDIDAQTFADWGVDLLKFDGCYCDSLENLADGYKHMSLALNRTGRSIVYSCEWPLYMWPFQKPNYTEIRQYCNHWRNFADIDDSWKSIKSILDWTSFNQERIVDVAGPGGWNDPDMLVIGNFGLSWNQQVTQMALWAIMAAPLFMSNDLRHISPQAKALLQDKDVIAINQDPLGKQGYQLRQGDNFEVWERPLSGLAWAVAMINRQEIGGPRSYTISVASLGKGVACNPACFITQLLPVKRKLGFYEWTSRLRSHINPTGTVLLQLENTMQMSLKDLL
modifications: Synthetic Polypeptide sequence of Variant No. 1 of mature Human GLA
B3: 2 (protein)
chain: LDNGLARTPTMGWLHWERFMCNLDCQEEPDSCISEKLFMEMADLMVSEGWKDAGYEYLCIDDCWMAPQRDSEGRLQADPQRFPHGIRQLANYVHSKGLKLGIYADVGNKTCAGFPGSFGYYDIDAQTFADWGVDLLKFDGCYCDSLENLADGYKHMSLALNRTGRSIVYSCEWPLYMWPFQKPNYTEIRQYCNHWRNFADIDDSWKSIKSILDWTSFNQERIVDVAGPGGWNDPDMLVIGNFGLSWNQQVTQMALWAIMAAPLFMSNDLRHISPQAKALLQDKDVIAINQDPLGKQGYQLRQGDNFEVWERPLSGLAWAVAMINRQEIGGPRSYTIAVASLGKGVACNPACFITQLLPVKRKLGFYEWTSRLRSHINPTGTVLLQLENTMQMSLKDLL
modifications: Synthetic Polypeptide sequence of Variant No. 2 of mature Human GLA
B4: 123 (protein)
chain: LDNGLARTPTMGWLHWERFDCNLDCQEEPDSCISEKLFMEMAELMVSEGWKDAGYEYLCIDDCWMAPQRDSEGRLQADPQRFPHGIRQLANYVHSKGLKLGIYADVGNKTCAGFPGSFGYYDIDAQTFADWGVDLLKFDGCYCDSLENLADGYKHMSLALNRTGRSIVYSCEWPLYMWPFQKPNYTEIRQYCNHWRNFADIDDSWKSIKSILDWTSFNQERIVDVAGPGGWNDPDMLVIGNFGLSWNQQVTQMALWAIMAAPLFMSNDLRHISPQAKALLQDKDVIAINQDPLGKQGYQLRKGDNFEVWERPLSGLAWAVAMINRQEIGGPRSYTIAVASLGKGVACNPACFITQLLPVKRKLGFYEWTSRLRSHINPTGTVLLQLENTMQMSKDLLL
modifications: Synthetic Polypeptide sequence of Variant No. 123 of mature Human GLA
B5: 124 (protein)
chain: LDNGLARTPTMGWLHWERFMCNLDCQEEPDSCISEKLFMEMAELMVSEGWKDAGYEYLCIDDCWMAPQRDSEGRLQADPQRFPHGIRQLANYVHSKGLKLGIYADVGNKTCAGFPGSFGYYDIDAQTFADWGVDLLKFDGCYCDSLENLADGYKHMSLALNRTGRSIVYSCEWPLYMWPFQKPNYTEIRQYCNHWRNFADIDDSWKSIKSILDWTSFNQERIVDVAGPGGWNDPDMLVIGNFGLSWNQQVTQFALWAIMAAPLFMSNDLRHISPQAKALLQDKDVIAINQDPLGKQGYQLRQGDNFEVWERPLSGLAWAVAMINRQEIGGPRSYTIAVASLGKGVACNPACFITQLLPVKRKLGFYEWTSRLRSHINPTGTVLLQLENTMQMSKDLLL
modifications: Synthetic Polypeptide sequence of Variant No. 124 of mature Human GLA
B6: 125 (protein)
chain: LDNGLARTPTMGWLHWERFMCNLDCQEEPDSCISEKLFMEMAELMVSEGWKDAGYEYLCIDDCWMAPQRDSEGRLQADPQRFPHGIRQLANYVHSKGLKLGIYADVGNKTCAGFPGSFGYYDIDAQTFADWGVDLLKFDGCYCDSLENLADGYKHMSLALNRTGRSIVYSCEWPLYMWPFQKPNYTEIRQYCNHWRNFADIDDSWKSIKSILDWTSFNQERIVDVAGPGGWNDPDMLVIGNFGLSWNQQVTQMALWAIMAAPLFMSNDLRHISPQAKALLQDKDVIAINQDPLGKQGYQLRQGDNFEVWERPLSGLAWAVAIINRQEIGGPRSYTIAVASLGKGVACNPACFITQLLPVKRKLGFYEWTSRLRSHINPTGTVLLQLENTMQMSKDLLL
modifications: Synthetic Polypeptide sequence of Variant No. 125 of mature Human GLA

Legend:
Assay type in all cases: biochemical
Settings in all cases: activity of the variant/activity of WT GLA (SEQ ID NO: 5), yeast supernatant
[1] = HTP-analysis of yeast culture supernatants, no challenge (MUGal hydrolysis)
Method in brief: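 Activity read as 4-methylumbelliferyl α-D-galactopyranoside hydrolysis: fluorescence (355/448 nm) after sodium carbonate stop, following 30-180 min at 37° C with 2 mM MUGal stock at pH 4.6–4.8. Enzyme source is unchallenged culture supernatant of INVSc1 yeast expressing GLA variants, grown 66-84 h at 30° C.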

[2] = HTP-analysis of supernatants pretreated with acid (MUGal hydrolysis)
Method in brief: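 Supernatants from INVSc1 yeast secreting GLA variants were challenged at 37° C. for 1-3 h in McIlvaine buffer at pH 3.3-4.3. Residual activity was then measured on 4 mM MUGal substrate stock at pH 4.8 with citrate buffer pH 4.3, over 30-180 min at 37° C. Reactions were quenched with sodium carbonate and read by fluorescence (Ex 355/Em 448 nm).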

[3] = HTP-analysis of supernatants pretreated with base (MUGal hydrolysis)
Method in brief: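 GLA variants secreted from yeast INVSc1; culture supernatants pre-incubated with McIlvaine buffer pH 7.0–8.2 or 200 mM bicarbonate pH 9.1–9.7 at 37° C. for 1–18 h. Residual activity: MUGal (4 mM stock) hydrolysis at pH 4.3–4.8, 37° C., 30–180 min, carbonate quench; fluorescence Ex 355/Em 448 nm.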

Molecule	Relative Activity of GLA Variants After No Challenge (NC) [1]	Relative Activity of GLA Variants After Challenge at pH 4.3 [2]	Relative Activity of GLA Variants After Challenge at pH 7.0 [3]	Relative Activity of GLA Variants After Challenge at pH 4.2 [2]	Relative Activity of GLA Variants After Challenge at pH 7.1 [3]
B1	+ (+ = 0.5 to 1.5 relative activity over WT GLA (SEQ ID NO: 5))	++ (++ = >1.5 to 2.5 relative activity over WT GLA (SEQ ID NO: 5))	+ (+ = 0.5 to 1.5 relative activity over WT GLA (SEQ ID NO: 5))	–	–
B2	+ (+ = 0.5 to 1.5 relative activity over WT GLA (SEQ ID NO: 5))	+ (+ = 0.5 to 1.5 relative activity over WT GLA (SEQ ID NO: 5))	+ (+ = 0.5 to 1.5 relative activity over WT GLA (SEQ ID NO: 5))	–	–
B3	+ (+ = 0.5 to 1.5 relative activity over WT GLA (SEQ ID NO: 5))	+ (+ = 0.5 to 1.5 relative activity over WT GLA (SEQ ID NO: 5))	+ (+ = 0.5 to 1.5 relative activity over WT GLA (SEQ ID NO: 5))	–	–
B4	− (− = <0.5 relative activity to WT GLA (SEQ ID NO: 5))	–	–	+ (+ = 0.5 to 1.5 relative activity over WT GLA (SEQ ID NO: 5))	− (− = <0.5 relative activity to WT GLA (SEQ ID NO: 5))
B5	++ (++ = >1.5 to 2.5 relative activity over WT GLA (SEQ ID NO: 5))	–	–	++ (++ = >1.5 to 2.5 relative activity over WT GLA (SEQ ID NO: 5))	+ (+ = 0.5 to 1.5 relative activity over WT GLA (SEQ ID NO: 5))
B6	+ (+ = 0.5 to 1.5 relative activity over WT GLA (SEQ ID NO: 5))	–	–	+ (+ = 0.5 to 1.5 relative activity over WT GLA (SEQ ID NO: 5))	+ (+ = 0.5 to 1.5 relative activity over WT GLA (SEQ ID NO: 5))

From patent US11278600B2, “Human alpha-galactosidase variants” (Codexis, Inc., priority 2014, dated 2022)
